In the data set the test system is MS2 coat protein. Briefly: apparent KD of MS2 coat protein; designed switch direction (-1 OFF switch, 1 ON switch): 1; higher = weaker reporter binding. The method, boiled down:
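The buffer was Tris-HCl pH 7.5 with KCl, MgCl2, BSA, DTT, tRNA and Tween-20. In it, SNAP-549-labelled MS2 coat protein was titrated in doubling steps from 0.7 or 1.5 nM to 3 µM over chip-bound RNA switches transcribed by stalled E. coli RNA polymerase on Illumina chips. Apparent KD is the per-design median over clusters of curve fits to normalised fluorescence.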

Setting [1] is: Eterna round: R95, input ligand: FMN 200 uM.
Setting [2] is: Eterna round: R95, input ligand: microRNA oligo, concentration not stated.
The mark [3] stands for this setting: Eterna round: R95, input ligand: none.
The mark [4] stands for this setting: input ligand: microRNA oligo, concentration not stated.

As to “UACAAUCUAUCUCAGGAUAUCAUGUCAAAGACAUGAGGAUCACCCAUGUACCAGGAAACUGGUUAUGAGAAGGGAGAUAGAUUGA [Mat - Same State 2 - Mod - D25] (puzzle: Same State 2)”, the “apparent KD of MS2 coat protein” value reads like this: under setting [1], 119 nM; under setting [2], 59.1 nM; under setting [3], 390 nM.

“UACAAUCUAUCUCAGGAUAUCAUGUCAAAGACAUGAGGAUCACCCAUGUACCAGGAAACUGGUUAUGAGAAGGGAGAUAGAUUGU [Mat - Same State 2 - Mod - D24] (puzzle: Same State 2)”: the “apparent KD of MS2 coat protein” value runs as follows: under setting [1], 136 nM; under setting [2], 35.4 nM; under setting [3], 77.9 nM.

Regarding “UACAAUCUAUCUGAGGAUAUCAUGAAUUAAACAUGAGGAUCACCCAUGUGCAGGAAAACUGCAUAUGAGAAGGCAGAUAGAUUGU [salish99_ss2_r3_060] (puzzle: Same State 2)”, the “apparent KD of MS2 coat protein” value under setting [1] turned out to be 52.9 nM, the “apparent KD of MS2 coat protein” value under setting [2] was found to be 2.45 nM and the “apparent KD of MS2 coat protein” value under setting [3] was determined as 804 nM.

As to “UACCAACAUAUAGAACAAGCGUGCUCGUCACAUGAGGAUCACCCAUGUCUAAACGCUGUACCUACAUCCUCAGCGCC [Eddiso] (puzzle: Sensor for hsa-mir-208a)”, the “apparent KD of MS2 coat protein” value under setting [1] was 23.3 nM, the “apparent KD of MS2 coat protein” value under setting [2] came to 24.6 nM and the “apparent KD of MS2 coat protein” value under setting [3] was 22.8 nM.

In the case of “UACCGCGCAGAUGCGCAACAUGAGGAUCACCCAUGUGGCACACAGGAUAUCCUGAACAGCUAUUAGGAGAAGGGUGAAGGCCUC [Sotetelequ] (Eterna round: R96, puzzle: Same State NG 3)”, the “apparent KD of MS2 coat protein” value reads like this: (input ligand: FMN 200 uM) 128 nM; under setting [4], 75.3 nM; (input ligand: none) 78.3 nM.

As for “UAGAAACAUGAGGAUCACCCAUGUGGGUUAAACACAGGAUAUCACGCCAAAAGAAAAGCGUGAGAAGGGUGACCGA [Xeusisus] (Eterna round: R96, puzzle: Same State 1)”, the “apparent KD of MS2 coat protein” value runs as follows: (input ligand: FMN 200 uM) 254 nM; under setting [4], 696 nM; (input ligand: none) 107 nM.

With “UAGAAACAUGAGGAUCACCCAUGUGGGUUAAACACAGGAUAUCACGCCAAAAGAAAAGCGUGAGAAGGGUGACCGA [Xeusisus] (puzzle: Same State 1)”, the “apparent KD of MS2 coat protein” value is, setting by setting: under setting [1], 166 nM; under setting [2], 71.2 nM; under setting [3], 161 nM.

As to “UAGAGAGGAAGCGAGGAUAUCGUGGGAGGGACAUGAGGAUCACCCAUGUAGGAUGUUGAGAGGAACGAGAAGGCGCAGGAAAGAA [JR_SS2_Sub075] (puzzle: Same State 2)”, the “apparent KD of MS2 coat protein” value is, setting by setting: under setting [1], 67.1 nM; under setting [2], 78.1 nM; under setting [3], 110 nM.

Regarding “UAGAGAGGAAGCGAGGAUAUCGUGUGAGGAACAUGAGGAUCACCCAUGUGUGAUGUUGAGAGAGACGAGAAGGCGCAGGAGAUUA [JR_SS2_Sub083] (puzzle: Same State 2)”, the “apparent KD of MS2 coat protein” value by setting is: under setting [1], 87.5 nM; under setting [2], 150 nM; under setting [3], 140 nM.

Consider “UAGUGCAUUAGAGGAUAUUCUUACGACACGAGUAAGACAUGAGGAUCACCCAUGUCGUGGCAUGGGAAGAAGGCUGAUGUGCUA [Omei SS(NG)2 Bv7] (Eterna round: R96, puzzle: Same State NG 2)”, for which the “apparent KD of MS2 coat protein” value by setting is: (input ligand: FMN 200 uM) 14.4 nM; under setting [4], 11.1 nM; (input ligand: none) 34.7 nM.

Turning to “UAGUGCAUUAGAGGAUAUUCUUACGACACGAGUAAGACAUGAGGAUCACCCAUGUUGUGGCAUGGGAAGAAGGCUGAUGUGCUA [Omei SS(NG)2 Bv9] (Eterna round: R96, puzzle: Same State NG 2)”, under setting [4], the “apparent KD of MS2 coat protein” value stood at 45.3 nM.

Regarding “UAUAAACAUGAGGAUCACCCAUGUAAUAAUAUGGGAGGAUAUCAGAUUUAAUUUAAUUUAUGAGAAGGCCUAAUAU [Mat - Same State 1 - Mod of Eli - D66] (Eterna round: R96, puzzle: Same State 1)”, the “apparent KD of MS2 coat protein” value under setting [4] worked out at 427 nM.

As for “UAUAAACAUGAGGAUCACCCAUGUAAUAAUAUGGGAGGAUAUCAGAUUUAAUUUAAUUUAUGAGAAGGCCUAAUAU [Mat - Same State 1 - Mod of Eli - D66] (puzzle: Same State 1)”, the “apparent KD of MS2 coat protein” value stood at 34.3 nM under setting [1], 491 nM under setting [2] and 825 nM under setting [3].

Take “UAUGACUUACAAGGAUAUUAAUAACAUGAGGAUCACCCAUGUGGCUGUGAGAGUUAGAUAAGCUAUAAGAAGGUGUGUGUGUUU [JR_SSNG2_Sub094] (Eterna round: R96, puzzle: Same State NG 2)”: the “apparent KD of MS2 coat protein” value runs as follows: (input ligand: FMN 200 uM) 62.7 nM; under setting [4], 133 nM; (input ligand: none) 173 nM.

With “UCAACUUUUUUUAGUGUGUUGCCAGGUUAACAUGAGGAUCACCCAUGUAAAGUAUAGUGGGAUUAAGUUCGUCUUAA [JR_SHM208A_Sub072] (puzzle: Sensor for hsa-mir-208a)”, the “apparent KD of MS2 coat protein” value reads like this: under setting [1], 77.2 nM; under setting [2], 83.6 nM; under setting [3], 93.9 nM.

As for “UCAAGCGUUUGGCUCGUCUUAUGUUUUGUACAUGAGGAUCACCCAUGUUUUGUACGAUCCAGUUAGAUGGUAUUUUG [JR_SHM208A_Sub038] (puzzle: Sensor for hsa-mir-208a)”, the “apparent KD of MS2 coat protein” value amounted to 39.8 nM under setting [1], 121 nM under setting [2] and 54.6 nM under setting [3].

For the sequence “UCGAGCGUACUUGCAGACAUGAGGAUCACCCAUGUAAAUGGGAAGGAUAUGGUACCGUUUCGGUACCAGAAGGUCCUAAGUGUU [salish99_SSNG3_r04_303] (Eterna round: R96, puzzle: Same State NG 3)”, the “apparent KD of MS2 coat protein” value (input ligand: FMN 200 uM) came to 616 nM, the “apparent KD of MS2 coat protein” value under setting [4] amounted to 146 nM and the “apparent KD of MS2 coat protein” value (input ligand: none) was found to be 493 nM.

Turning to “UCGAGCGUACUUGCAGACAUGAGGAUCACCCAUGUAAAUGGGAAGGAUAUGGUACCGUUUCGGUACCAGAAGGUCCUACGUGCU [salish99_SSNG3_r04_305] (Eterna round: R96, puzzle: Same State NG 3)”, the “apparent KD of MS2 coat protein” value (input ligand: FMN 200 uM) is 325 nM, the “apparent KD of MS2 coat protein” value under setting [4] is 48.8 nM and the “apparent KD of MS2 coat protein” value (input ligand: none) was 144 nM.

For the sequence “UCGGGCGUACUUGCUGACAUGAGGAUCACCCAUGUCCUUGCGCAGGAUAUGGUUCCGUUUCGGUUCCAGAAGGUCCUGGCUGCU [salish99_SSNG3_r04_319] (Eterna round: R96, puzzle: Same State NG 3)”, the “apparent KD of MS2 coat protein” value is, setting by setting: (input ligand: FMN 200 uM) 30.5 nM; under setting [4], 19.5 nM; (input ligand: none) 33.2 nM.

In the case of “UCGUCGACACAAAUUCGACAACAUGAGGAUCACCCAUGUCCACAGGAUAUCGGCAGCUUAUGCUCCGAGAAGGGUGGUUAGAUU [Beage Mod] (Eterna round: R96, puzzle: Same State NG 3)”, the “apparent KD of MS2 coat protein” value by setting is: (input ligand: FMN 200 uM) 435 nM; under setting [4], 664 nM; (input ligand: none) 605 nM.

In the case of “UCUAUUGUGGUAGGAUAUCUAGGAUAUGGGAAGAGCUAAGCUUGGAAGUCACUUCACCCAGAAGGAGAGAAGGACCACACACUU [pwkr ssNG2 2FMN + F9.8] (Eterna round: R96, puzzle: Same State NG 2)”, the “apparent KD of MS2 coat protein” value by setting is: (input ligand: FMN 200 uM) 564 nM; under setting [4], 121 nM; (input ligand: none) 225 nM.

For the sequence “UCUUGGUUUUUGCUCGUUUUUUGUGUUGAACAUGAGGAUCACCCAUGUAUUGUACGAUCCAAUUUAAUAAUGGUCCG [JMF 60] (puzzle: Sensor for hsa-mir-208a)”, the “apparent KD of MS2 coat protein” value runs as follows: under setting [1], 42.6 nM; under setting [2], 33.6 nM; under setting [3], 50.2 nM.

Take “UCUUGGUUUUUGCUCGUUUUUUGUGUUGAACAUGAGGAUCACCCAUGUAUUGUACGGUCCGGUUUAGUAAUGGUCCG [JMF 11] (puzzle: Sensor for hsa-mir-208a)”: the “apparent KD of MS2 coat protein” value is, setting by setting: under setting [1], 24.8 nM; under setting [2], 15.1 nM; under setting [3], 25 nM.

For “UCUUGGUUUUUGCUCGUUUUUUGUGUUGAACAUGAGGAUCACCCAUGUAUUGUACGGUCCGGUUUAGUGAUGAUCCG [JMF 73] (puzzle: Sensor for hsa-mir-208a)”, the “apparent KD of MS2 coat protein” value under setting [1] was 39.1 nM, the “apparent KD of MS2 coat protein” value under setting [2] was found to be 31.3 nM and the “apparent KD of MS2 coat protein” value under setting [3] is 45.6 nM.

In the case of “UCUUGGUUUUUGCUCGUUUUUUGUGUUGAACAUGAGGAUCACCCAUGUAUUGUACGGUCCGGUUUGGUAAUGGUCCA [JMF 9] (puzzle: Sensor for hsa-mir-208a)”, the “apparent KD of MS2 coat protein” value is, setting by setting: under setting [1], 55.7 nM; under setting [2], 41.8 nM; under setting [3], 63.6 nM.

For “UGAAGAUCCAUAGGAUAUCCGACACAUGAGGAUCACCCAUGUCAACCAAACGCAGCUUCGGCCGUGGAGAAGGAUGGAGCUGUG [Eternabot solution 3] (Eterna round: R96, puzzle: Same State NG 2)”, the “apparent KD of MS2 coat protein” value by setting is: (input ligand: FMN 200 uM) 72.4 nM; under setting [4], 41.5 nM; (input ligand: none) 76.4 nM.

Take “UGAAUAGUGAUAGGAUAUACAUGAGGAAUCCUCGUAGAAGGAUCAUAACAUGAGGAUCACCCAUGUAGCGCUCAGAAGAGCGCA [Mat - Same State NG 1 - JL mod - D54] (Eterna round: R96, puzzle: Same State NG 1)”: the “apparent KD of MS2 coat protein” value stood at 31.5 nM (input ligand: FMN 200 uM), 37.1 nM under setting [4] and 81.3 nM (input ligand: none).

With “UGAAUGAUGUUAGGAUAUACAUGAGGAAUCCUCGUAGAAGGAACAUGACAUGAGGAUCACCCAUGUAGCGCUCCGUAGAGCGCA [JL SSNG1 1.19] (Eterna round: R96, puzzle: Same State NG 1)”, the “apparent KD of MS2 coat protein” value reads like this: (input ligand: FMN 200 uM) 210 nM; under setting [4], 30.4 nM; (input ligand: none) 146 nM.
